Experimental data from article PMC314469, “Protein Interaction Networks by Proteome Peptide Scanning” (PLoS Biology, 2004).

T1: Abp1 SH3 (ABP1_YEAST), P15891
T1 chain: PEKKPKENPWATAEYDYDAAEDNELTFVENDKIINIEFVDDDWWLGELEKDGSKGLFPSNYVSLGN


Molecular target: T1, Abp1 SH3 (ABP1_YEAST), P15891
Experiment: SPOT array

Row | normalised SPOT signal, Boehringer light units (BLU); mean over the file's lines of this peptide | Binder
1 | 60.8 | GQFSPENPNEFKP [YPR160W 817-829]
2 | 174 | GYFFHDPKFIPNKP [YGR019W 332-345]
3 | 83.5 | GTFESKHVVIPFKP [YLR238W 83-96]
4 | 62.7 | HLSLTAVPSFLRP [YJR090C 735-747]
5 | 55.9 | GSSPQPLPELIKP [YGR270W 682-694]
6 | 87.2 | GSVWSKTPPEIKP [YOL100W 451-463]
7 | 86.6 | GPQKEEAPKKHRP [YMR076C 1094-1106]
8 | 176 | GVFMNWSPRFDRP [YLR023C 375-387]
9 | 131 | GVVLRVMVLKPKKP [YNR036C 60-73]
10 | 122 | HIGDMYGSVTPLRP [YHL002W 323-336]
11 | 58.6 | GTKSQESPLNKKP [YNL042W 210-222]
12 | 98.3 | HKSNVRQISNPKKP [YGL023C 320-333]
13 | 137 | HEESNNYVEIPKKP [YHR092C 51-64]
14 | 204 | GKLLKSYPTSARP [YGR238C 700-712]
15 | 108 | GSTAVSFPSSGKP [YLR313C 322-334]
16 | 703 | HSYRQLAPTHHRP [YFL015C 82-94]
17 | 224 | GKNKMHEPKNGRP [YOR006C 4-16]
18 | 292 | GNPLYTTPKTPPRP [YKR028W 953-966]
19 | 172 | GYRKAALKYHPDKP [YNL007C 25-38]
20 | 65.2 | GKSRRKTNTKPSRP [YPL137C 17-30]

Row | normalised SPOT signal, Boehringer light units (BLU); mean over the file's lines of this peptide | Binder
21 | 85.4 | HKNFFSQPDINRP [YMR100W 263-275]
22 | 107 | GSSELEEPIAIRP [YHR020W 279-291]
23 | 257 | HHHHHNRGSTPTKP [YDL025C 257-270]
24 | 69.7 | HLFPPSSPVAGKP [YDR501W 3-15]
25 | 55.3 | HHNIDIDPLPRRP [YLR299W 81-93]
26 | 866 | GRLTPGLPRSYKP [YPR111W 45-57]
27 | 25200 | GSKSGPPPRPKKP [YNL138W 349-361]
28 | 134 | GTSASHSPRPFRP [YLL029W 25-37]
29 | 123 | HDKDVIVPNVWRP [YEL036C 221-233]
30 | 41900 | GKDKSRPPRPPPKP [YIL095W 743-756]
31 | 131 | HLIAPLAGAVPTKP [YLR153C 435-448]
32 | 48.5 | GVADPQNSLNPSKP [YOR363C 848-861]
33 | 499 | GNGMYKIPSNTKP [YPL116W 648-660]
34 | 8770 | GPAPPPPPRASRP [YOR181W 384-396]
35 | 127 | GQLANSSSRAPAKP [YDL222C 69-82]
36 | 131 | GLKYAQSPKFSKP [YKL212W 605-617]
37 | 122 | GVNYVDYYPLPDKP [YGL137W 186-199]
38 | 2090 | HMTHNRKPAEPTKP [YML075C 1020-1033]
39 | 102 | GWYLTGAPNILKP [YDL203C 543-555]
40 | 172 | HLYSMDPPLDRKP [YGL131C 343-355]

Row | normalised SPOT signal, Boehringer light units (BLU); mean over the file's lines of this peptide | Binder
41 | 2720 | GRAPRETPEWRRP [YGL034C 16-28]
42 | 154 | HGLPRNADSQPARP [YIR013C 32-45]
43 | 73.6 | GKIELTSPITSKP [YEL019C 178-190]
44 | 318 | GNIVEIAPLIPKKP [YDR080W 593-606]
45 | 140 | GKDIPFFPSSEKP [YDR443C 544-556]
46 | 107 | HADSVADPRSSRP [YOL085C 38-50]
47 | 106 | GTKKIAGVQVPAKP [YPL107W 67-80]
48 | 156 | HKVKERDPNMPKRP [YDL002C 84-97]
49 | 124 | GLQGDQFPRQQRP [YDR240C 296-308]
50 | 124 | HGTLTFPSDYPYKP [YER100W 55-68]
51 | 112 | GVNLDPSVKIPAKP [YIR007W 25-38]
52 | 169 | GMTKTPETSPPKRP [YDR200C 28-41]
53 | 87.4 | HLNNSDIHSQPNKP [YOR329C 803-816]
54 | 91.3 | HASLLVRDSKPSKP [YBR193C 182-195]
55 | 139 | GYDVKVTPWEKRP [Q0055 610-622]
56 | 41.6 | GKLVDLTPASMKP [YGR196C 563-575]
57 | 135 | GLNDSTEPVLHKP [YIL044C 131-143]
58 | 2310 | GVRNIMIPFPNRP [YOR093C 1314-1326]
59 | 285 | HITSHLRVHVPLKP [YHL027W 198-211]
